According to article PMC5346706, “Anti-metastatic effect of the TM4SF5-specific peptide vaccine and humanized monoclonal antibody on colon cancer in a mouse lung metastasis model” (Oncotarget, 2016):

Assays:
[1] = molecular target: T1, Myc-tagged recombinant human TM4SF5 protein (Homo sapiens (Huh-7 cDNA), UniProt O14894); experiment: western blotting; whole cell lysates of HEK 293F-EV and HEK 293F-TM4SF5 cells resolved on SDS-PAGE and probed with the antibody; conditions: one partner purified
T1 construct: human transmembrane 4 superfamily member 5 protein (TM4SF5); cDNA amplified from Huh-7 mRNA with the printed primers (5' primer holds the ATG); also called Myc-tagged hTM4SF5; hTM4SF5
T1 sequence (O14894 whole entry): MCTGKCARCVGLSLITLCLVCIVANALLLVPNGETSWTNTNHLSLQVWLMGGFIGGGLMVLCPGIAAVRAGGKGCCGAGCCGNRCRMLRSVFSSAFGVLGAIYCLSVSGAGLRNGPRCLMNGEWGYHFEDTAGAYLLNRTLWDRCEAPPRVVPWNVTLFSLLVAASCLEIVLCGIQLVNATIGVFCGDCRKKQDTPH

[2] = molecular target: cyclic peptide hTM4SF5EC2-C (human); experiment: SPR; biotinylated peptide immobilized on a streptavidin chip, increasing amounts of antibody applied; SR7500DC Reichert SPR system

B1: mouse anti-TM4SF5 monoclonal antibody mEC2-C (antibody, V domains shown)
VH: QVQLEESGPGLVAPSQSLSIICTVSGFSLTSYGVTWVRQPPGKGLEWLGVIWSDGSTNYQSALISRLTISRDNSKSQAFLKLNSLQTDDTATYYCARPSNYYYFDYWGQGTTLTVSS
VL: DIVMTQSPSSLAVSAGERVTLSCKSSQSLFDRRTRKTYLAWYQQKPGQSPKLLISWASTRESGVPDRFTGSGSGTDFTLTISSVQAEDLAVYYCKQSYNLFTFGGGTKLEIK
notes: VH of mEC2-C (mouse VH2 subtype); mouse IgG3 heavy chain constant region; VL of mEC2-C (mouse Vk8 subtype); mouse kappa light chain constant region (cloned with kappa chain primers); Mouse IgG3, kappa; also called mEC2-2; source: hybridoma, purified from ascitic fluid (Protein A column)
[1]
  binding result: binds
[2]
  Kd: < 0.48 nM
  koff: < 1e-05 s⁻¹
